Results published in PMC4397020.

Target: fibronectin (from human plasma) (human) (UniProt P02751)
Test: ELISA; as the adhesion assay on coated substrate, over a range of protein concentrations; KD estimated with the xy analysis subprogram of GraphPad Prism v. 5

Chain of UniProt P02751 (P02751 other isoform, or with tags, fused parts or gaps, chain 1 of 2): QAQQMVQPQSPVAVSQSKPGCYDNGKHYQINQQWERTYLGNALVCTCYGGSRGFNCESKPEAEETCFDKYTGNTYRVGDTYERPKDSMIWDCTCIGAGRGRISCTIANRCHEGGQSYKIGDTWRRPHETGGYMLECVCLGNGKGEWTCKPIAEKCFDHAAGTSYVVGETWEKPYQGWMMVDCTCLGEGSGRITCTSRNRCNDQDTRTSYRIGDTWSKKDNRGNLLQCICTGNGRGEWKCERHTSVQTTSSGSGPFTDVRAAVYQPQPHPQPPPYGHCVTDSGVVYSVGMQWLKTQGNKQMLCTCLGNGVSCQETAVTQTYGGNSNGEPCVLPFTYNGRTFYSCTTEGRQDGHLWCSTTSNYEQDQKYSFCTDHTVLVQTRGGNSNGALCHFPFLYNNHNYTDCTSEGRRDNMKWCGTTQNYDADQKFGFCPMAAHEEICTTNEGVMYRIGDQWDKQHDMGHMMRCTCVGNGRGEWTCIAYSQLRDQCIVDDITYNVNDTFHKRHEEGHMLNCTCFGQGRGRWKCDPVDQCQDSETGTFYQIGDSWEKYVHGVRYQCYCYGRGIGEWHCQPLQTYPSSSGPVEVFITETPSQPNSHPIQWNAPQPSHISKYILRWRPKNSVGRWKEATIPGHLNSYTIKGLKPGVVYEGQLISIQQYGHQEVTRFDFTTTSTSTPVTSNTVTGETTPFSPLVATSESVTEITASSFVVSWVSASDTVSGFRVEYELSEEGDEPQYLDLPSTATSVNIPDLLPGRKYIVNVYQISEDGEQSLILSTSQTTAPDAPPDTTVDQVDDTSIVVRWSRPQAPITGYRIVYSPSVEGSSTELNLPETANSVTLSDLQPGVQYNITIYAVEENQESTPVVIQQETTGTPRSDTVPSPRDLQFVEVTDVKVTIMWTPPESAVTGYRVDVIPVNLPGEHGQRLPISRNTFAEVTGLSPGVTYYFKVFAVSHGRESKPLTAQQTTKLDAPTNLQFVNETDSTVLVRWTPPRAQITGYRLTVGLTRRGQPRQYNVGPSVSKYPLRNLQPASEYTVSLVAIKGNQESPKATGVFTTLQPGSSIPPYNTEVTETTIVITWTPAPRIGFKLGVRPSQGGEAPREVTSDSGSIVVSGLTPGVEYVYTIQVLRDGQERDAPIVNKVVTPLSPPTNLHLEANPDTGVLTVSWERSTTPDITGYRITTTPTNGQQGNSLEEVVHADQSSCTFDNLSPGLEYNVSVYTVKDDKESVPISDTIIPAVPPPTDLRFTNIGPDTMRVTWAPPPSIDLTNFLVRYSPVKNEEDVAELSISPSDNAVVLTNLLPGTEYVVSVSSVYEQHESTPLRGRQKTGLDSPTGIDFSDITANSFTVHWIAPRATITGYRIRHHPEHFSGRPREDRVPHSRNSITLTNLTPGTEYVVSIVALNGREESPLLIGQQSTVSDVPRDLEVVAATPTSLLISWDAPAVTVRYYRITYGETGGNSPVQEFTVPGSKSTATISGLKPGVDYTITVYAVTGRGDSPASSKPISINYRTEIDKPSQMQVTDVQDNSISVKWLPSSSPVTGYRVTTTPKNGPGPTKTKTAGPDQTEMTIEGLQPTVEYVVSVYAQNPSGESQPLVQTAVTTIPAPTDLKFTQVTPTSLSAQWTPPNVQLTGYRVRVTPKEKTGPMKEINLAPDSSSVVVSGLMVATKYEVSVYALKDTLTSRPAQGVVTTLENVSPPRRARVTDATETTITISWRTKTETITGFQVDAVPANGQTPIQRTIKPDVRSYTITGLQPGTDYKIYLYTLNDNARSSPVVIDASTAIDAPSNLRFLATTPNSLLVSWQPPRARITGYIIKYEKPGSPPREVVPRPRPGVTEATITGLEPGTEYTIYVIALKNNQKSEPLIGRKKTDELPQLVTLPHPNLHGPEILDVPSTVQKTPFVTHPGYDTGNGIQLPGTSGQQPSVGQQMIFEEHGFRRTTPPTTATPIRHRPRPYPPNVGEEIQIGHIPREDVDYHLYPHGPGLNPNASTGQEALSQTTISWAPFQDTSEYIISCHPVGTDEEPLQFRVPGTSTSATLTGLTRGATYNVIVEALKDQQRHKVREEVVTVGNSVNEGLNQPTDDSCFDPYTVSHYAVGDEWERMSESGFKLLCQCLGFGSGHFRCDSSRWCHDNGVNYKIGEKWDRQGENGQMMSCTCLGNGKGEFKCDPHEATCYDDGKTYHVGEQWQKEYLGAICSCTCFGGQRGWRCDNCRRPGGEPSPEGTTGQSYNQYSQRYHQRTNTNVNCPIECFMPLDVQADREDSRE
Chain of UniProt P02751 (P02751 other isoform, or with tags, fused parts or gaps, chain 2 of 2): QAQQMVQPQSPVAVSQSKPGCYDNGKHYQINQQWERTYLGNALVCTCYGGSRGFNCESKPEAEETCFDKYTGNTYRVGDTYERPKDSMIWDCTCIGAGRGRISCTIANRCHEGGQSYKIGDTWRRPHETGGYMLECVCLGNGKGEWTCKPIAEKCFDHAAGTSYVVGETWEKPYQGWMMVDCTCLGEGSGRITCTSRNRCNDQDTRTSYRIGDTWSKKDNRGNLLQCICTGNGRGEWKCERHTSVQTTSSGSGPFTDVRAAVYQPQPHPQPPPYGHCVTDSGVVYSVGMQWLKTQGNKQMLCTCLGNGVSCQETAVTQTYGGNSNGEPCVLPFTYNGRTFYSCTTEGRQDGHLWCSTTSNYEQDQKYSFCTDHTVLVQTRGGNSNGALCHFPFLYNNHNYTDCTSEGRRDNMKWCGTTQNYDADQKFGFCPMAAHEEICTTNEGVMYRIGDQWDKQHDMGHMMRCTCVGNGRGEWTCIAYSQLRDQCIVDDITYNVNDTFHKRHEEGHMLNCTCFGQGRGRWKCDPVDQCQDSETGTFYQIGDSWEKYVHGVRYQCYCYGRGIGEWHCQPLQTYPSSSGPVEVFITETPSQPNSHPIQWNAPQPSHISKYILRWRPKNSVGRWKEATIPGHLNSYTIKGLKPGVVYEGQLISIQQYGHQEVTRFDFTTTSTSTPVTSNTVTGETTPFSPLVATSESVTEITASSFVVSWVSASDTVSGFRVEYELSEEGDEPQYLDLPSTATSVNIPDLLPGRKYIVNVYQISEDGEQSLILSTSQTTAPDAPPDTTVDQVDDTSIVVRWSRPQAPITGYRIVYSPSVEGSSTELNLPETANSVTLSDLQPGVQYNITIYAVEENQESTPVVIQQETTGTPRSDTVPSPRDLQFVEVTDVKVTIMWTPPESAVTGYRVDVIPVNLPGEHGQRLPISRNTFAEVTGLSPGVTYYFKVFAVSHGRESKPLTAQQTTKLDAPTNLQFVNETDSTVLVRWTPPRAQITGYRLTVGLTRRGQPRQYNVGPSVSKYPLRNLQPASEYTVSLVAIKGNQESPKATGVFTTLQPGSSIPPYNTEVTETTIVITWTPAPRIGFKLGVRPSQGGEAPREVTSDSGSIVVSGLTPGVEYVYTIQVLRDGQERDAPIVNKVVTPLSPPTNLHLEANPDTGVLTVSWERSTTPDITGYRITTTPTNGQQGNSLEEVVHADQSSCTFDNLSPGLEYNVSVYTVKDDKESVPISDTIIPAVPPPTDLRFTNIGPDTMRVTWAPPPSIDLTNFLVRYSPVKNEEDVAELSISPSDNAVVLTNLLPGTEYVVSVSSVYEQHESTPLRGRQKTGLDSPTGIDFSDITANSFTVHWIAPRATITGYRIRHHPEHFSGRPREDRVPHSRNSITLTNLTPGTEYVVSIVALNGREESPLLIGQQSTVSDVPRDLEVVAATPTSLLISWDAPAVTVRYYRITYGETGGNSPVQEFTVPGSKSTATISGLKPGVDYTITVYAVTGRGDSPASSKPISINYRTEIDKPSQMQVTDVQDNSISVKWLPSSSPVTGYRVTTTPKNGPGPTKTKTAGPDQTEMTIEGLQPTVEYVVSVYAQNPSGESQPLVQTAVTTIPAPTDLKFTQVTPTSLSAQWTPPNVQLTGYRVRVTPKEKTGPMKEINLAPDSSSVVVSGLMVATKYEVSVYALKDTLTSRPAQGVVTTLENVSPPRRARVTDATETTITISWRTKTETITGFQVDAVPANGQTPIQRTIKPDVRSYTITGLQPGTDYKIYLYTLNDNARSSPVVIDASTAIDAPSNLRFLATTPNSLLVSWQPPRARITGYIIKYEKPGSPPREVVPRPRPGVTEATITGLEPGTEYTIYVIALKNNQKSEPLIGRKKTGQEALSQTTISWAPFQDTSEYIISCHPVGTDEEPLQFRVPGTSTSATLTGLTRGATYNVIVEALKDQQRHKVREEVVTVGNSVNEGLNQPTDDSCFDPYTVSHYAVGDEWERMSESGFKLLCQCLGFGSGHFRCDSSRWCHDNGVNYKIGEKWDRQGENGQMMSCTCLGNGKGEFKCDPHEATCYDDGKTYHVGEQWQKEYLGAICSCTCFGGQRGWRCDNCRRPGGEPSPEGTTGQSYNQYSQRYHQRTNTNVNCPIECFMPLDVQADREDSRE

MBP-OmpL1 (natural protein)
Kd: 870 nM
